Residue numbers refer to the chain shown, from its start. No end group written: not given here. *: point of attachment. 125I = [125I]*

The target in assay [1] is T1, Dahl S Dear S44/M74 variant (rat Dual Endothelin-1/Angiotensin II Receptor) (rat (Dahl S/JRHsd), UniProt D3ZGZ6 1-127).
T1 construct: It was assayed as membranes of transiently transfected Cos1 cells, and as rat kidney membranes on blots; also called Dahl S receptor; Cos1-S
T1 chain: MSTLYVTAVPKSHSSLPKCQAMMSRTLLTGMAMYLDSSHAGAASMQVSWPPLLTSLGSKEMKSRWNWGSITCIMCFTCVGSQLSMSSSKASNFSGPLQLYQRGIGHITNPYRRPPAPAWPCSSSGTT
The assay can be described thus: saturation radioligand binding, Cos1 membranes; KH, high affinity binding site; the column head says nM but paragraph 132 gives this value in pM. The protocol: (§1) Binding of [¹²⁵I]Tyr⁴-angiotensin II and [¹²⁵I]Tyr¹³-endothelin-1 to COS-1 membranes was performed by a rapid filtration method (32, 50). Briefly, [¹²⁵I]Tyr⁴-angiotensin II (0.25˜6.5 nM) or [¹²⁵I]Tyr¹³-endothelin-1 (0.045˜1.46 nM) was incubated with membranes (100 μg) for 20 min at 37° C. in 100 μl buffer A (5 mM MgCl₂, 0.2 mM EDTA, 10 mg/ml BSA, 10 mM Hepes, pH7.4). Binding reactions were terminated by the addition of 1 ml ice-cold buffer A and immediately filtered through a Whatman GF/C filter (presoaked overnight at 4° C. in 10 mg/ml BSA) and subsequently washed with 15 ml ice-cold buffer A. Specific binding was determined as the difference between the total radioactivity bound to membranes and the radioactivity bound to blanks containing 1 μM AngII or 1 μM ET-1. The dissociation constant (Kd) and maximum ligand-binding sites (Bₘₐₓ) were determined using Hill plot analysis (55). Hill coefficient values (h) were calculated from the relationship ln [B/(Bₘₐₓ−B)]=h ln [free Radioligand]−ln Kd. […] The data were best fit by two affinity states determined by Scatchard plot analysis; KH and KL designate the Kd for high- and low-affinity states of the receptor, respectively (44). Most results are expressed as the mean±SE (standard error) from three to five independent experiments.

Assay [2] concerns the target T2, Dahl R Dear S44P/M74T variant (rat Dual Endothelin-1/Angiotensin II Receptor) (rat (Dahl R/JRHsd), UniProt D3ZGZ6 1-127).
T2 construct: It was assayed as membranes of transfected Cos1 cells and as kidney membranes on blots; also called Dahl R receptor; Cos1-R
T2 chain: T1 chain with S44P, M74T
Described as above. The method, then:
as §1

Assay [3] has as its target T1, Dahl S Dear S44/M74 variant (rat Dual …). In words: saturation radioligand binding, Cos1 membranes; comparison of KH. The protocol:
as §1

The target of the assay “mouse Dear (Dual …)” is T3, mouse Dear (Dual Endothelin-1/Angiotensin II Receptor) (mouse, UniProt Q2QKR2 1-127).
T3 construct: Endogenous protein in mouse kidney membranes and embryos was used for the antibody work; also called mouse receptor polypeptide; mouse Dear polypeptide
T3 sequence: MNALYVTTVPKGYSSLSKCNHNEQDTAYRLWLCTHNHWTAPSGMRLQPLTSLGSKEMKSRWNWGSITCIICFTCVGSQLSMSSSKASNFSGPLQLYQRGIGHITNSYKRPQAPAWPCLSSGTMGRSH
The assay can be described thus: 125I-ET-1 binding to membranes of Cos-1 cells expressing mouse Dear.

Assay [4] addresses T1, Dahl S Dear S44/M74 variant (rat Dual …). The assay can be described thus: saturation radioligand binding, Cos1 membranes; KL, low affinity binding site; the column head says nM, and the unit is doubtful. The method, then: as §1
The target of assay [5] is T2, Dahl R Dear S44P/M74T variant (rat Dual …). Described as above. The protocol:
as §1

B1: [125I]Tyr13-endothelin-1 (peptide, UniProt P05305 53-73, looked up)
peptide: CSCSSLMDKECVY(125I)FCHLDIIW
modifications: ends and bridges not checked
notes: mature; Radiolabelled ligand; also called ET-1
As for B1, the Kd (commonly the free concentration of one partner at which half of the binding sites on the other are occupied at equilibrium, for simple one-to-one binding) in assay [1] was found to be 0.00442 nM; in assay [2], 0.012 nM; in assay [4], 0.45 nM; in assay [5], 0.836 nM. Further, the “fold increased affinity compared to the Dahl R Dear S44P/M74T variant” value in assay [3] was 3 fold. For the same molecule, the binding result in the assay with mouse Dear (Dual …) is “binds”.

The values are drawn from US20140186344A1 (TRUSTEES OF BOSTON UNIVERSITY, published 2014).
